Data on four molecules can be found in article PMC7744550, “Structurally distinct telomere-binding proteins in Ustilago maydis execute non-overlapping functions in telomere replication, recombination, and protection”.

The target of data set [1] is T1, Tay1-FG (Ustilago maydis) (UniProt A0A0D1CTG7).
T1 sequence: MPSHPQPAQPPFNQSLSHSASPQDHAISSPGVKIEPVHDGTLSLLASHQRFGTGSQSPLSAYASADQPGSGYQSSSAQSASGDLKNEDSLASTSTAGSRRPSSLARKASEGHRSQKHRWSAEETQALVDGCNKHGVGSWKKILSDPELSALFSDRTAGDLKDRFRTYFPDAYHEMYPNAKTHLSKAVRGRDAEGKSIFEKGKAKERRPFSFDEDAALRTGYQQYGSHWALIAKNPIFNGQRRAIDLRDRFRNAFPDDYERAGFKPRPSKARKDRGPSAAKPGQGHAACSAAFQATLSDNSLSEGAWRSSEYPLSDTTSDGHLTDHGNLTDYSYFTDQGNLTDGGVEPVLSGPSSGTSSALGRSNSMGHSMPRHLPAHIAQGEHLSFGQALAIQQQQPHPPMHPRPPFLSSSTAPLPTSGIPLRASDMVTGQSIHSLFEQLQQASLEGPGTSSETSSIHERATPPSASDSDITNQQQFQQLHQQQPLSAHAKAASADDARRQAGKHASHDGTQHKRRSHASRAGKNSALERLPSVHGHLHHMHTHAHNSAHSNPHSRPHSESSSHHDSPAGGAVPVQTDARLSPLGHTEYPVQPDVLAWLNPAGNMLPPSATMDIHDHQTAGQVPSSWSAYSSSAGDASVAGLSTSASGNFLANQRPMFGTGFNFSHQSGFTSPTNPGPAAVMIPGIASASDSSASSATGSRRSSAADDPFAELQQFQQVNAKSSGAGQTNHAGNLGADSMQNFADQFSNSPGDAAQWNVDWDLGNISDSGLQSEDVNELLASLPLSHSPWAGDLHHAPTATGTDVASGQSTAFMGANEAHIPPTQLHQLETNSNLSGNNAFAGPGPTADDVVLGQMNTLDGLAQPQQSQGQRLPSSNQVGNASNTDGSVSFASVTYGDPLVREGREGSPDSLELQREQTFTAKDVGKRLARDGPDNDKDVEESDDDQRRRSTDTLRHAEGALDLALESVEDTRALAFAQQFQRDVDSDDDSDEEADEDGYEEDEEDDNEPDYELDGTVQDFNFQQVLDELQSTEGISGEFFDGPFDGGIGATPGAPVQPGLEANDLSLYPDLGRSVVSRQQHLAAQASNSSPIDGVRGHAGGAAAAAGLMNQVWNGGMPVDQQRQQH
As to the kind of experiment: EMSA. The conditions noted are these: 25 mM HEPES-KOH pH 7.5, 5% glycerol, 3 mM MgCl2, 0.1 mM EDTA, 1 mM DTT, 0.5 µg/µl BSA, 1-10 nM 32P probe, 22 °C 15 min; 6% native PAGE in 0.2x TBE.

Data set [2] addresses T2, Tay1N274-FG (Ustilago maydis) (UniProt A0A0D1CTG7).
T2 sequence: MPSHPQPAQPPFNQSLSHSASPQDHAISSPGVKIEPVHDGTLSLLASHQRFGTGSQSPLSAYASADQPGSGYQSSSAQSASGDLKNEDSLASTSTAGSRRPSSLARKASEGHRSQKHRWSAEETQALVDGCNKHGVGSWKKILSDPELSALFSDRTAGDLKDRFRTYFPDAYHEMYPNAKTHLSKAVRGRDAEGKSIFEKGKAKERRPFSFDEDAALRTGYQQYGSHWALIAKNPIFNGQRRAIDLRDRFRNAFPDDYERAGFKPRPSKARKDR
As to the kind of experiment: EMSA. The conditions noted are these: 25 mM HEPES-KOH pH 7.5, 5% glycerol, 3 mM MgCl2, 0.1 mM EDTA, 1 mM DTT, 0.5 µg/µl BSA, 1-10 nM 32P probe, 22 °C 15 min; 6% native PAGE in 0.2x TBE.

The target in data set [3] is T3, Trf2∆N-FG3 (Ustilago maydis) (UniProt A0A0D1E1Z3).
T3 sequence: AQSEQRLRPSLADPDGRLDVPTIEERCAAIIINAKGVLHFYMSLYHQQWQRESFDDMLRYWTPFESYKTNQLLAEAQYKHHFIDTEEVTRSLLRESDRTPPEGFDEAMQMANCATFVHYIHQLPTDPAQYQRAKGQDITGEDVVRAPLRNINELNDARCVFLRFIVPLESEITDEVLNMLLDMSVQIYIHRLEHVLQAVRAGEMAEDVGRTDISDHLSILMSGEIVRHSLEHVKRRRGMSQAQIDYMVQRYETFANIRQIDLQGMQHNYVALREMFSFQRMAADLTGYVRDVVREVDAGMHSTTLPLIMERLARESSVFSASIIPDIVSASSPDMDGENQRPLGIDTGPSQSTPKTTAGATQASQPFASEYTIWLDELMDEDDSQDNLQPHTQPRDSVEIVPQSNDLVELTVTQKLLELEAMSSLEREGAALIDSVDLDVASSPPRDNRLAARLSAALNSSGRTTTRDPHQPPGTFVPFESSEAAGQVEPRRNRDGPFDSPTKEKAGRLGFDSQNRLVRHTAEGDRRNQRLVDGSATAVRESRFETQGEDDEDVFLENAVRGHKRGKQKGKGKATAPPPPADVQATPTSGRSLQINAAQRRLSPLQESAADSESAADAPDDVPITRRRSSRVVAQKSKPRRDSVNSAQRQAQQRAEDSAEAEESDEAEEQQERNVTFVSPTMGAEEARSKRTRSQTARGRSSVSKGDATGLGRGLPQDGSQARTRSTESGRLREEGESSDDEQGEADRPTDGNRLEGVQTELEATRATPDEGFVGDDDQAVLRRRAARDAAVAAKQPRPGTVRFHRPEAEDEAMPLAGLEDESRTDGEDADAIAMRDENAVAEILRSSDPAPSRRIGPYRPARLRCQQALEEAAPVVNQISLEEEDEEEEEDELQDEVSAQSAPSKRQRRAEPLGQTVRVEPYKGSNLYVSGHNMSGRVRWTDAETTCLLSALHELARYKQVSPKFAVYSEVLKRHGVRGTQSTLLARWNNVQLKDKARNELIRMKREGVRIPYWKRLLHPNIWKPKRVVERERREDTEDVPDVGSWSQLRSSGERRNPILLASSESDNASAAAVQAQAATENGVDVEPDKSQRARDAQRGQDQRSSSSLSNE
As to the kind of experiment: EMSA. Conditions: 25 mM HEPES-KOH pH 7.5, 5% glycerol, 3 mM MgCl2, 0.1 mM EDTA, 1 mM DTT, 0.5 µg/µl BSA, 1-10 nM 32P probe, 22 °C 15 min; 6% native PAGE in 0.2x TBE.

A further data set has as its target Tay1-FG (Ustilago maydis, UniProt A0A0D1CTG7 1-1127). As to the kind of experiment: competition; unlabeled competitor; 25 mM HEPES-KOH pH 7.5, 5% glycerol, 3 mM MgCl2, 0.1 mM EDTA, 1 mM DTT, 0.5 µg/µl BSA, 1-10 nM 32P probe, 22 °C 15 min; 6% native PAGE in 0.2x TBE. The conditions noted are these: protein: recombinant; tags: C-terminal FLAG (His-SUMO cleaved by ULP1); blunt.

A further data set concerns the target Trf2∆N-FG3 (Ustilago maydis, UniProt A0A0D1E1Z3 416-1528). As to the kind of experiment: EMSA; 25 mM HEPES-KOH pH 7.5, 5% glycerol, 3 mM MgCl2, 0.1 mM EDTA, 1 mM DTT, 0.5 µg/µl BSA, 1-10 nM 32P probe, 22 °C 15 min; 6% native PAGE in 0.2x TBE. The conditions noted are these: protein: recombinant; tags: C-terminal FG3 (His-SUMO cleaved by ULP1).

Regarding “TTAGGGTTAGGGTTAGGGTTAGGG (double strand) [TTAGGG4 ds]”, the results for the Kd in data set [1], in data set [2] and in data set [3] were 27 nM, 130 nM and 20 nM, respectively.

Tay1-FG (natural protein) came in with a helicase activity of Blm (12.5 nM) on a non-telomeric DNA substrate with Tay1 at 0, 10, 30 and 90 nM with Blm-FG (Ustilago maydis) of 2.5 fold.

B1: CgTEL (dsDNA)
DNA 1: TGGGGTCTGGGTGCTG
DNA 2: CAGCACCCAGACCCCA
As to B1, the binding result in the data set with Tay1-FG is on record as “no binding”.

B2: TTAGGG4 G-strand (ssDNA)
DNA: TTAGGGTTAGGGTTAGGGTTAGGG
As to B2, the binding result with Trf2∆N-FG3 was “no binding”.
